According to patent EP2245064B1 (MEDIMMUNE LIMITED, dated 2014):
Read-outs that look alike come from different tables or passages of the source.

T1: human IL4Rα/Fc (R and D Systems 604-4R) (human, UniProt P24394 26-232)
T1 construct: Bought product; also called human IL4Rα-Fc receptor; IL-4Rα/Fc (R&D systems Cat. No. 604-4R-050)
T1 sequence (looked up): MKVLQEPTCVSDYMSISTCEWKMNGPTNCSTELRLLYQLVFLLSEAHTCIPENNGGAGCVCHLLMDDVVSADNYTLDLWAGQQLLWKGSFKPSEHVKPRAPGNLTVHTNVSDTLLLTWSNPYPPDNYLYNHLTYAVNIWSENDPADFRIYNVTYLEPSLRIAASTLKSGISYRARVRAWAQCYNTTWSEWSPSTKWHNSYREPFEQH


Legend:
[1] = molecular target: antibody used for epitope mapping in Example 5 (not named); assay: HTRF competition vs biotinylated human IL-4Rα/Fc for Eu-cryptate antibody
[2] = molecular target: antibody used for epitope mapping in Example 5 (not named); assay: as above; remark: listed apart in the source
[3] = molecular target: human IL-4Rα on TF-1 cells (human) (UniProt P24394); assay: cell-based or functional assay
[4] = molecular target: T1, human IL4Rα/Fc (R and D Systems 604-4R); assay: HTRF receptor-ligand competition, scFv vs biotinylated human IL4

IC50 [1] | Binder | further results
1.9 nM | MoLoop1HuIL-4Rα (receptor) MKVLQEPTCVSDYIRTSTCEWKMNGPTNCSTELRLLYQLVFLLSEAHTCIPENNGGAGCVCHLLMDDVVSADNYTLDLWAGQQLLWKGSFKPSEHVKPRAPGNLTVHTNVSDTLLLTWSNPYPPDNYLYNHLTYAVNIWSENDPADFRIYNVTYLEPSLRIAASTLKSGISYRARVRAWAQCYNTTWSEWSPSTKWHNSYREPFNPAFLYKVVGAADYKDDDDKAAHHHHHHHHHH | –
3.8 nM | EM20 (receptor) MKVLQEPTCVSDYMSISTCEWKMNGPTNCSTELRLLYQLMFFFSENLTCIPENNGGAGCVCHLLMDDVVSADNYTLDLWAGQQLLWKGSFKPSEHVKPRAPGNLTVHTNVSDTLLLTWSNPYPPDNYLYNHLTYAVNIWSENDPADFRIYNVTYLEPSLRIAASTLKSGISYRARVRAWAQCYNTTWSEWSPSTKWHNSYREPFNPAFLYKVVGAADYKDDDDKAAHHHHHHHHHH | –
0.663 nM | MoLoop4HuIL-4Rα (receptor) MKVLQEPTCVSDYMSISTCEWKMNGPTNCSTELRLLYQLVFLLSEAHTCIPENNGGAGCVCHLLMDDVVSADNYTLDLWAGQQLLWKGSFKPSEHVKPRAPGNLTVHTNVSDTLLLTWNNLYPSNNYLYNHLTYAVNIWSENDPADFRIYNVTYLEPSLRIAASTLKSGISYRARVRAWAQCYNTTWSEWSPSTKWHNSYREPFNPAFLYKVVGAADYKDDDDKAAHHHHHHHHHH | –
0.448 nM | EM25 (receptor) MKVLQEPTCVSDYMSISTCEWKMNGPTNCSTELRLLYQLVFLLSENLTCIPENNGGAGCVCHLLMDDVVSADNYTLDLWAGQQLLWKGSFKPSEHVKPRAPGNLTVHTNVSDTLLLTWSNPYPPDNYLYNHLTYAVNIWSENDPADFRIYNVTYLEPSLRIAASTLKSGISYRARVRAWAQCYNTTWSEWSPSTKWHNSYREPFNPAFLYKVVGAADYKDDDDKAAHHHHHHHHHH | –
– | MoLoop3HuIL-4Rα (receptor) MKVLQEPTCVSDYMSISTCEWKMNGPTNCSTELRLLYQLVFLLSEAHTCIPENNGGAGCVCHLEMNRPVQSDRYTLDLWAGQQLLWKGSFKPSEHVKPRAPGNLTVHTNVSDTLLLTWSNPYPPDNYLYNHLTYAVNIWSENDPADFRIYNVTYLEPSLRIAASTLKSGISYRARVRAWAQCYNTTWSEWSPSTKWHNSYREPFNPAFLYKVVGAADYKDDDDKAAHHHHHHHHHH | % inhibition at 1000nM [1]: 58%; % inhibition at 1000nM [2]: 45%
1.4 nM | MoLoop5HuIL-4Rα (receptor) MKVLQEPTCVSDYMSISTCEWKMNGPTNCSTELRLLYQLVFLLSEAHTCIPENNGGAGCVCHLLMDDVVSADNYTLDLWAGQQLLWKGSFKPSEHVKPRAPGNLTVHTNVSDTLLLTWSNPYPPDNYLYNHLTYAVNIWSENDPADFRIYNVTYLEPSLRIAASTLKSGISYRARVRAWSQILTGTWSEWSPSTKWHNSYREPFNPAFLYKVVGAADYKDDDDKAAHHHHHHHHHH | –
– | MoD1HuD2IL-4Rα (receptor) IKVLGEPTCFSDYIRTSTCEWFLDSAVDCSSQLCLHYRLMFFEFSENLTCIPRNSASTVCVCHMEMNRPVQSDRYQMELWAEHRQLWQGSFSPSGHVKPRAPGNLTVHTNVSDTLLLTWSNPYPPDNYLYNHLTYAVNIWSENDPADFRIYNVTYLEPSLRIAASTLKSGISYRARVRAWAQCYNTTWSEWSPSTKWHNSYREPFNPAFLYKVVGAADYKDDDDKAAHHHHHHHHHH | % inhibition at 1000nM [1]: 34%
– | Antibody 24 (PGL) IgG (antibody, from another filing, V domains shown) VH: QVQLVQSGAEVKKPGASVKVSCKASGYAFTSYYMHWVRQAPGQGLEWMGIINPRGGSTSYAQKFQGRVTMTRDTSTSTVYMELSSLRSEDTAVYYCARGKYWMYDWGKGTLVTVSS VL: QSVLTQPPSVSAAPGQKVTISCSGGSSNIGNSYVSWYQQLPGTAPKLLIYDNNKRPSGIPDRFSGSKSGTSATLGITGLQTGDEADYFCGTWDTSTVWEWPFGTGTKLTVL | IC50, IL-4 induced TF-1 cell proliferation [3]: 0.0153 nM; IC50, IL-13 induced TF-1 cell proliferation [3]: 0.055 nM
– | Antibody 1 scFv (scFv, V domains shown) VH: QVQLVQSGAEVKKPGASVKVSCKASGYAFTSYYMHWARQAPGQGLEWMGIINPSGGSTSYAQKFQGRVTMTRDTSTSTVYMELSSLRSEDTAVYYCARGKWWLDYWGKGTLVTVSS VL: QSVLTQPPSVSAAPGQKVTISCSGGSSNIGNSYVSWYQQLPGTAPKLLIYDNNKRPSGIPDRFSGSKSGTSATLAITGLQTGDEADYYCGTWDTSLSANYVFGTGTKLTVL | Ki [4]: 12 nM
4.5 nM | EM19 (receptor) MKVLQEPTCVSDYMSISTCEWKMNGPTNCSTELRLLYQLMFLEFSENLTCIPENNGGAGCVCHLLMDDVVSADNYTLDLWAGQQLLWKGSFKPSEHVKPRAPGNLTVHTNVSDTLLLTWSNPYPPDNYLYNHLTYAVNIWSENDPADFRIYNVTYLEPSLRIAASTLKSGISYRARVRAWAQCYNTTWSEWSPSTKWHNSYREPFNPAFLYKVVGAADYKDDDDKAAHHHHHHHHHH | –
19 nM | EM22 (receptor) MKVLQEPTCVSDYMSISTCEWKMNGPTNCSTELRLLYQLMFFEFSEALTCIPENNGGAGCVCHLLMDDVVSADNYTLDLWAGQQLLWKGSFKPSEHVKPRAPGNLTVHTNVSDTLLLTWSNPYPPDNYLYNHLTYAVNIWSENDPADFRIYNVTYLEPSLRIAASTLKSGISYRARVRAWAQCYNTTWSEWSPSTKWHNSYREPFNPAFLYKVVGAADYKDDDDKAAHHHHHHHHHH | –
13 nM | EM24 (receptor) MKVLQEPTCVSDYMSISTCEWKMNGPTNCSTELRLLYQLVFFEFSEAHTCIPENNGGAGCVCHLLMDDVVSADNYTLDLWAGQQLLWKGSFKPSEHVKPRAPGNLTVHTNVSDTLLLTWSNPYPPDNYLYNHLTYAVNIWSENDPADFRIYNVTYLEPSLRIAASTLKSGISYRARVRAWAQCYNTTWSEWSPSTKWHNSYREPFNPAFLYKVVGAADYKDDDDKAAHHHHHHHHHH | –
5.7 nM | EM21 (receptor) MKVLQEPTCVSDYMSISTCEWKMNGPTNCSTELRLLYQLMFFELSENLTCIPENNGGAGCVCHLLMDDVVSADNYTLDLWAGQQLLWKGSFKPSEHVKPRAPGNLTVHTNVSDTLLLTWSNPYPPDNYLYNHLTYAVNIWSENDPADFRIYNVTYLEPSLRIAASTLKSGISYRARVRAWAQCYNTTWSEWSPSTKWHNSYREPFNPAFLYKVVGAADYKDDDDKAAHHHHHHHHHH | –
